Test results from patent US10941182 (Amgen, dated 2021).
Starred links: 1 amine or outer side, 2 acyl side, 3 side chain; linkers in the order of their positions; H or OH if unused. Non-standard residues stand in square brackets, D forms with d. Primed or numbered codes have the meaning given here. *: point of attachment. NPipG = 2-(piperidin-4-ylamino)acetic acid, O=C(CN(C1CCN([*:3])CC1)[*:1])[*:2]; AC4Abu = α-carboxy-4-aminobutyric acid, O=C(C(CCN[*:1])C(=O)[*:3])[*:2]; Oic = O=C(O)[C@@H]1C[C@@H]2CCCC[C@@H]2N1; Phe(4-Cl) = N[C@@H](Cc1ccc(Cl)cc1)C(=O)O; γGlu = O=C(O)[C@H](CCC(=O)[*:2])N[*:1]; d(β3hF) = N[C@@H](CC(=O)O)Cc1ccccc1; NMeR = CN[C@@H](CCCNC(=N)N)C(=O)O; Palmitoyl = CCCCCCCCCCCCCCCC(=O)*; Tic = O=C(O)[C@@H]1Cc2ccccc2CN1; dTic = O=C(O)[C@H]1Cc2ccccc2CN1; β3hF = N[C@H](CC(=O)O)Cc1ccccc1; Cha = N[C@@H](CC1CCCCC1)C(=O)O; Aic = NC1(C(=O)O)Cc2ccccc2C1; β3hP = O=C(O)C[C@@H]1CCCN1; Pip = O=C(O)[C@@H]1CCCCN1; Nle = CCCC[C@H](N)C(=O)O; Orn = NCCC[C@H](N)C(=O)O; Pip′ = not defined here; AEEA = NCCOCCOCC(=O)O; Aib = CC(C)(N)C(=O)O; Inp = O=C(O)C1CCNCC1; Nip = nipecotic acid

T1: human APJ receptor (human, UniProt P35414 1-380)
T1 sequence (looked up): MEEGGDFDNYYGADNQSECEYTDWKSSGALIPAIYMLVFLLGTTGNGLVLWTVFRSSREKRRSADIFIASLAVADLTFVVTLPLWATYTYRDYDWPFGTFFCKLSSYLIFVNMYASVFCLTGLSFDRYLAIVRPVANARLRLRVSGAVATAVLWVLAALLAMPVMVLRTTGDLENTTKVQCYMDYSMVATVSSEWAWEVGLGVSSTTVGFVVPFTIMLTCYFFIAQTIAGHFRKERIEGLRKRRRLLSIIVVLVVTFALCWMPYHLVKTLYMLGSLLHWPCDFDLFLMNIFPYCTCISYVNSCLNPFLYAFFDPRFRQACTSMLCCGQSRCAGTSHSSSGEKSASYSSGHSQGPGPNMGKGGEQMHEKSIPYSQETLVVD

T2: rat APJ receptor (rat, UniProt Q9JHG3 1-377)
T2 sequence (looked up): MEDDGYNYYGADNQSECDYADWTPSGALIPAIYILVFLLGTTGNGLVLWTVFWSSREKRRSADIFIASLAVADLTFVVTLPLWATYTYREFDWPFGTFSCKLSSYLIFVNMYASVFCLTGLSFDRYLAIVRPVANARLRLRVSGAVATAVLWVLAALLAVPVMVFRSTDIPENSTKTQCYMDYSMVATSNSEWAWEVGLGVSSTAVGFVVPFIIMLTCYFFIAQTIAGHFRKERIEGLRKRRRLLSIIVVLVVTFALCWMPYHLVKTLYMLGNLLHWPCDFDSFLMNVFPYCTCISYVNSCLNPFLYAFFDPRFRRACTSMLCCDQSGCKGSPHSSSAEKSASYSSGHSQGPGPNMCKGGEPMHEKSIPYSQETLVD


What was measured:
human APJ receptor = target: T1, human APJ receptor; test: cell-based or functional assay
rat APJ receptor = target: T2, rat APJ receptor; test: cell-based or functional assay

Row | Binder | EC50 Human APJ Receptor (human APJ receptor) [nM] | EC50 Rat APJ Receptor (rat APJ receptor) [nM]
1 | Palmitoyl-[AC4Abu][AEEA][AEEA][dQ]RP[NMeR][Cha]SHKG[Pip][Nle]P[Tic]-OH (SMILES CCCCCCCCCCCCCCCC(=O)NCCC(C(=O)O)C(=O)NCCOCCOCC(=O)NCCOCCOCC(=O)N[C@H](CCC(N)=O)C(=O)N[C@@H](CCCNC(=N)N)C(=O)N1CCC[C@H]1C(=O)N(C)[C@@H](CCCNC(=N)N)C(=O)N[C@@H](CC1CCCCC1)C(=O)N[C@@H](CO)C(=O)N[C@@H](Cc1c[nH]cn1)C(=O)N[C@@H](CCCCN)C(=O)NCC(=O)N1CCCC[C@H]1C(=O)N[C@@H](CCCC)C(=O)N1CCC[C@H]1C(=O)N1Cc2ccccc2C[C@H]1C(=O)O) [SEQ ID NO: 598] | 0.463 | 2.84
2 | Palmitoyl-[AC4Abu][AEEA][AEEA][dQ]RP[NMeR][Cha]SHKG[Pip][Nle][Nip][Phe(4-Cl)]-OH [SEQ ID NO: 588] | 1.52 | 6.37
3 | XXXQRPRLSHKGPXPF ({pIFBu}[AC4Abu][Aeea][Aeea]QRP[NMeArg]LSHKGP[Nle]P[4-Cl-F]{COOH}) [SEQ ID NO: 118] | 0.0475 | 0.171
4 | Palmitoyl-[AC4Abu][AEEA][AEEA][dQ]RP[NPipG][Cha]SHKG[Pip′][Nle][Aib][Phe(4-Cl)]-OH [SEQ ID NO: 645] | 0.254 | 0.395
5 | Palmitoyl-[AC4Abu][AEEA][AEEA][dQ]RP[NMeR][Cha]SHKG[Pip][Nle]P[Aic]-OH (SMILES CCCCCCCCCCCCCCCC(=O)NCCC(C(=O)O)C(=O)NCCOCCOCC(=O)NCCOCCOCC(=O)N[C@H](CCC(N)=O)C(=O)N[C@@H](CCCNC(=N)N)C(=O)N1CCC[C@H]1C(=O)N(C)[C@@H](CCCNC(=N)N)C(=O)N[C@@H](CC1CCCCC1)C(=O)N[C@@H](CO)C(=O)N[C@@H](Cc1c[nH]cn1)C(=O)N[C@@H](CCCCN)C(=O)NCC(=O)N1CCCC[C@H]1C(=O)N[C@@H](CCCC)C(=O)N1CCC[C@H]1C(=O)NC1(C(=O)O)Cc2ccccc2C1) [SEQ ID NO: 590] | 0.816 | 6.2
6 | Palmitoyl-[AC4Abu][AEEA][AEEA][dQ]RP[NMeR][Cha]SHKG[Pip′][Nle]P[β3hF]-OH [SEQ ID NO: 647] | 1.58 | 5.83
7 | Palmitoyl-[AC4Abu][AEEA][AEEA][dQ]RP[NMeR][Cha]SHKG[Pip′][Nle]P[d(β3hF)]-OH [SEQ ID NO: 568] | 2.97 | 4.55
8 | Palmitoyl-[AC4Abu][AEEA][AEEA][dQ]RP[NMeR][Cha]SHKG[Pip][Nle]P[dTic]-OH (SMILES CCCCCCCCCCCCCCCC(=O)NCCC(C(=O)O)C(=O)NCCOCCOCC(=O)NCCOCCOCC(=O)N[C@H](CCC(N)=O)C(=O)N[C@@H](CCCNC(=N)N)C(=O)N1CCC[C@H]1C(=O)N(C)[C@@H](CCCNC(=N)N)C(=O)N[C@@H](CC1CCCCC1)C(=O)N[C@@H](CO)C(=O)N[C@@H](Cc1c[nH]cn1)C(=O)N[C@@H](CCCCN)C(=O)NCC(=O)N1CCCC[C@H]1C(=O)N[C@@H](CCCC)C(=O)N1CCC[C@H]1C(=O)N1Cc2ccccc2C[C@@H]1C(=O)O) [SEQ ID NO: 599] | 0.44 | 1.01

Now from value to binder:

Row | EC50 Human APJ Receptor (human APJ receptor) [nM] | EC50 Rat APJ Receptor (rat APJ receptor) [nM] | Binder
9 | 0.652 | 2.83 | Palmitoyl-[AC4Abu][AEEA][AEEA][dQ]RP[NMeR][Cha]SHKG[Pip′][Nle][d(β3hF)]-OH [SEQ ID NO: 574]
10 | 2.47 | 11.1 | Palmitoyl-[γGlu][AEEA][AEEA][dQ]RP[NMeR][Cha]SH[Orn]G[Oic][Nle][β3hP][d(β3hF)]-OH (SMILES CCCCCCCCCCCCCCCC(=O)N[C@@H](CCC(=O)NCCOCCOCC(=O)NCCOCCOCC(=O)N[C@H](CCC(N)=O)C(=O)N[C@@H](CCCNC(=N)N)C(=O)N1CCC[C@H]1C(=O)N(C)[C@@H](CCCNC(=N)N)C(=O)N[C@@H](CC1CCCCC1)C(=O)N[C@@H](CO)C(=O)N[C@@H](Cc1c[nH]cn1)C(=O)N[C@@H](CCCN)C(=O)NCC(=O)N1[C@H](C(=O)N[C@@H](CCCC)C(=O)N2CCC[C@H]2CC(=O)N[C@@H](CC(=O)O)Cc2ccccc2)C[C@@H]2CCCC[C@@H]21)C(=O)O) [SEQ ID NO: 618]
11 | 1.4 | 5.85 | Palmitoyl-[AC4Abu][AEEA][AEEA][dQ]RP[NMeR][Cha]SHKG[Pip][Aib][Phe(4-Cl)]-OH (SMILES CCCCCCCCCCCCCCCC(=O)NCCC(C(=O)O)C(=O)NCCOCCOCC(=O)NCCOCCOCC(=O)N[C@H](CCC(N)=O)C(=O)N[C@@H](CCCNC(=N)N)C(=O)N1CCC[C@H]1C(=O)N(C)[C@@H](CCCNC(=N)N)C(=O)N[C@@H](CC1CCCCC1)C(=O)N[C@@H](CO)C(=O)N[C@@H](Cc1c[nH]cn1)C(=O)N[C@@H](CCCCN)C(=O)NCC(=O)N1CCCC[C@H]1C(=O)NC(C)(C)C(=O)N[C@@H](Cc1ccc(Cl)cc1)C(=O)O) [SEQ ID NO: 581]
12 | 0.624 | 4.15 | Palmitoyl-[AC4Abu][AEEA][AEEA]QRP[NMeR][Cha]SHKG[Pip][Nle][Inp][Phe(4-Cl)]-OH (SMILES CCCCCCCCCCCCCCCC(=O)NCCC(C(=O)O)C(=O)NCCOCCOCC(=O)NCCOCCOCC(=O)N[C@@H](CCC(N)=O)C(=O)N[C@@H](CCCNC(=N)N)C(=O)N1CCC[C@H]1C(=O)N(C)[C@@H](CCCNC(=N)N)C(=O)N[C@@H](CC1CCCCC1)C(=O)N[C@@H](CO)C(=O)N[C@@H](Cc1c[nH]cn1)C(=O)N[C@@H](CCCCN)C(=O)NCC(=O)N1CCCC[C@H]1C(=O)N[C@@H](CCCC)C(=O)N1CCC(C(=O)N[C@@H](Cc2ccc(Cl)cc2)C(=O)O)CC1) [SEQ ID NO: 589]
13 | 0.0829 | 0.532 | XXXQRPRLSHKGPXPF ({PDA}[AC4Abu][Aeea][Aeea]QRP[NMeArg]LSHKGP[Nle]P[4-Cl-F]{COOH}) [SEQ ID NO: 495]
14 | 0.885 | 3.37 | Palmitoyl-[AC4Abu][AEEA][AEEA][dQ]RP[NMeR][Cha]SHKG[Pip][Nle][Aic]-OH (SMILES CCCCCCCCCCCCCCCC(=O)NCCC(C(=O)O)C(=O)NCCOCCOCC(=O)NCCOCCOCC(=O)N[C@H](CCC(N)=O)C(=O)N[C@@H](CCCNC(=N)N)C(=O)N1CCC[C@H]1C(=O)N(C)[C@@H](CCCNC(=N)N)C(=O)N[C@@H](CC1CCCCC1)C(=O)N[C@@H](CO)C(=O)N[C@@H](Cc1c[nH]cn1)C(=O)N[C@@H](CCCCN)C(=O)NCC(=O)N1CCCC[C@H]1C(=O)N[C@@H](CCCC)C(=O)NC1(C(=O)O)Cc2ccccc2C1) [SEQ ID NO: 597]
15 | 8.68 | 25.8 | Palmitoyl-[γGlu][AEEA][AEEA][dQ]RP[NMeR][Cha]S[dH]KG[Oic][Nle][β3hP][d(β3hF)]-OH (SMILES CCCCCCCCCCCCCCCC(=O)N[C@@H](CCC(=O)NCCOCCOCC(=O)NCCOCCOCC(=O)N[C@H](CCC(N)=O)C(=O)N[C@@H](CCCNC(=N)N)C(=O)N1CCC[C@H]1C(=O)N(C)[C@@H](CCCNC(=N)N)C(=O)N[C@@H](CC1CCCCC1)C(=O)N[C@@H](CO)C(=O)N[C@H](Cc1c[nH]cn1)C(=O)N[C@@H](CCCCN)C(=O)NCC(=O)N1[C@H](C(=O)N[C@@H](CCCC)C(=O)N2CCC[C@H]2CC(=O)N[C@@H](CC(=O)O)Cc2ccccc2)C[C@@H]2CCCC[C@@H]21)C(=O)O) [SEQ ID NO: 617]
16 | 0.831 | 2.5 | Palmitoyl-[AC4Abu][AEEA][AEEA][dQ]RP[NMeR][Cha]SHKG[Pip][Nle][β3hF]-OH (SMILES CCCCCCCCCCCCCCCC(=O)NCCC(C(=O)O)C(=O)NCCOCCOCC(=O)NCCOCCOCC(=O)N[C@H](CCC(N)=O)C(=O)N[C@@H](CCCNC(=N)N)C(=O)N1CCC[C@H]1C(=O)N(C)[C@@H](CCCNC(=N)N)C(=O)N[C@@H](CC1CCCCC1)C(=O)N[C@@H](CO)C(=O)N[C@@H](Cc1c[nH]cn1)C(=O)N[C@@H](CCCCN)C(=O)NCC(=O)N1CCCC[C@H]1C(=O)N[C@@H](CCCC)C(=O)N[C@H](CC(=O)O)Cc1ccccc1) [SEQ ID NO: 579]
